For assay [1], the target named is adenylyl cyclase 5/6 (AC5/6), endogenous in HEK-293 cells (human (endogenous in HEK-293)) (UniProt O95622). As to the kind of experiment: co-IP.
The target in assay [2] is caveolin-1 (Cav-1), endogenous in human renal proximal tubule (hRPT) cells (human (endogenous in hRPT cells)) (UniProt Q03135). The assay is described as follows: co-IP.

The record followed here is PMC4166567.

Sequence of UniProt Q03135 (Q03135 whole entry): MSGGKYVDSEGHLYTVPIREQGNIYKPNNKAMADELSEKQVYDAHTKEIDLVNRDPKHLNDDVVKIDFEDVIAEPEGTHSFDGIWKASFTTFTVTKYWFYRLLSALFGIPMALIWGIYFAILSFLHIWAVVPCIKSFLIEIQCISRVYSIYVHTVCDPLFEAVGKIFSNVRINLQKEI

“human dopamine D1 receptor, Myc-tagged, heterologously expressed in HEK-293 cells (HEK-hD1R) (from UniProt P21728 1-446)”: the density of the co-immunoprecipitated band (DU), cells with fenoldopam in assay [1] is 41.9 DU.
On to “human dopamine D5 receptor, V5-tagged, heterologously expressed in HEK-293 cells (HEK-hD5R) (from UniProt P21918 1-477)”, for which, in assay [1], the density of the co-immunoprecipitated band (DU), cells with fenoldopam worked out at 76.2 DU.
In assay [2], “adenylyl cyclase 5/6 (AC5/6), endogenous in human renal proximal tubule (hRPT) cells (from UniProt O95622 1-1261) (enzyme)” came in with a density of the co-immunoprecipitated band (DU), cells with fenoldopam of 148 DU and a density of the co-immunoprecipitated band (DU), control cells of 70.3 DU.
